IC50 data for one substance are collected here from patent US20210221885A1.

pIC50: −log10 of the molar value.

This assay addresses Eu3+ cryptate labeled TIM3 (Cisbio kit, cat# 63ADK000CTLPEB) (human) (UniProt Q8TDQ0). The assay is described as follows: HTRF blocking assay (Cisbio kit), antibody added to a mixture of Tim3-EuK and Tag-Gal9; blocked ligand galectin-9; the unit is that of the concentration axis. In general terms: TR-FRET usually uses a lanthanide donor and a delayed reading to cut background.

Eu3+ cryptate labeled TIM3 (Cisbio kit, cat# 63ADK000CTLPEB) (human), sequence (Q8TDQ0 22-202 limits assumed): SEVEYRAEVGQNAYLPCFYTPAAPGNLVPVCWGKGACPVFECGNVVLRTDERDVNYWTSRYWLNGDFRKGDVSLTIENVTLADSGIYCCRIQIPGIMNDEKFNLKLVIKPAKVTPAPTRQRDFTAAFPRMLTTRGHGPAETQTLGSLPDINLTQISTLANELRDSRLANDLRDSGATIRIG

By pIC50 is commonly meant the negative decadic logarithm of the IC50, by convention in mol/L. “F38-2E2 (ebioscience, cat#16-3109-85) (antibody)”: the negative-log IC50 (pIC50) is 8.24.
